Experimental data reported in patent publication US20190361013A1 (SCUOLA NORMALE SUPERIORE, published 2019).

T1: LexA-IN
T1 construct: Non-acetylated Integrase bait; also called LexA-Integrase; IN-stop (non-acetylated)
T1 chain: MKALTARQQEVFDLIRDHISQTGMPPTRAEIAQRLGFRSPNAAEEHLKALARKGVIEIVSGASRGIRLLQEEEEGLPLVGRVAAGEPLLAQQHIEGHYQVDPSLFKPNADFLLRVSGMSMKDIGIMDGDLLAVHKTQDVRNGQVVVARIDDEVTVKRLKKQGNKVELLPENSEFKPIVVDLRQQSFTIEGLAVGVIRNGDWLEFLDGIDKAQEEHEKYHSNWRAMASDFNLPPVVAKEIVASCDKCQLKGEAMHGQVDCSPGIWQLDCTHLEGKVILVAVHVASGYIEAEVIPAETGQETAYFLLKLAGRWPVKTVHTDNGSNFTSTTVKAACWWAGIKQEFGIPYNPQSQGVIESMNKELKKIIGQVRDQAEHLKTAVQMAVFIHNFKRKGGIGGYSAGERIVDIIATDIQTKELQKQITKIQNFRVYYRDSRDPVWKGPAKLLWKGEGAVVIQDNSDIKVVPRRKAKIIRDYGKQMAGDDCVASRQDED

T2: LexA-Integrase-p300wt-HA (Integrase constitutively acetylated in cis by the fused p300 wt HAT; positions not stated)
T2 construct: Tethered catalysis bait expressed in L40 yeast from pMICBD1; also called IN-HATwt-HA; screening bait
T2 chain: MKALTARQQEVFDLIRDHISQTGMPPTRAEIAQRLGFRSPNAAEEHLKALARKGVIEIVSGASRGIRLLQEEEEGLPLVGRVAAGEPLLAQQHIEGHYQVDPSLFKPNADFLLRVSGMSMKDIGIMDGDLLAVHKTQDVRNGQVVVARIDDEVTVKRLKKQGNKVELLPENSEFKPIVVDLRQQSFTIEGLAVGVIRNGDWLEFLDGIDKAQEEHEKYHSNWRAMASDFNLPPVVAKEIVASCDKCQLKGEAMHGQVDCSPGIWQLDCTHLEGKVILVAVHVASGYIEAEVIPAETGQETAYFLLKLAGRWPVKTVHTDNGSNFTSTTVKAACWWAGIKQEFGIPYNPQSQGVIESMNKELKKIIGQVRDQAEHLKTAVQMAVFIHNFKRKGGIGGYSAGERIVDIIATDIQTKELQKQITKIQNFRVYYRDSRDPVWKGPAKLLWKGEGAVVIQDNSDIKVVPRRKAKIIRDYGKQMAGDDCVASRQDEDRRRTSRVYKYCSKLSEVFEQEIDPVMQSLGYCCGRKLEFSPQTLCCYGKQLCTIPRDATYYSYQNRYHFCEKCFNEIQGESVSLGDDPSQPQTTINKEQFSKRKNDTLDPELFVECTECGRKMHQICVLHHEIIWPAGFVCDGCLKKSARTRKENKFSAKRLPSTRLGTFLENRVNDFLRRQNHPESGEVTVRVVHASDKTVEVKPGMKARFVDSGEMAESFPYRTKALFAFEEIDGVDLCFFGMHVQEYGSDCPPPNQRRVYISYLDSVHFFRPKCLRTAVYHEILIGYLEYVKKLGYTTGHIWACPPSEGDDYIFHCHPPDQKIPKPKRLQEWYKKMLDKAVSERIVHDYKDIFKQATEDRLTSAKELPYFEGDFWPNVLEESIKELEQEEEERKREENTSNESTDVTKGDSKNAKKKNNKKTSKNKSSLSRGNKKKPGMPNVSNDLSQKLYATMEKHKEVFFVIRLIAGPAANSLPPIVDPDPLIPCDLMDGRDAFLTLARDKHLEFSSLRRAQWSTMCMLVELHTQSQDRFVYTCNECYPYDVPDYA


Experiments:
Assay in all cases: yeast two-hybrid (IACT), VP16 prey vs LexA bait, secondary screening
LexA-IN = target: T1, LexA-IN
LexA-Integrase-p300wt-HA = target: T2, LexA-Integrase-p300wt-HA
LexA-Gcn5wt-HA = target: T3, LexA-Gcn5wt-HA
T3 construct: Control bait without H3

LexA-Gcn5mut-HA = target: T4, LexA-Gcn5mut-HA
T4 construct: Control bait without H3

[1] = target: T5, LexA-HistoneH3-Gcn5mut-HA
T5 construct: Control bait; H3 not acetylated; also called LexA-H3-Gcn5mut-HA

| Binder | binding result (LexA-IN) | binding result (LexA-Integrase-p300wt-HA) | binding result (LexA-Gcn5wt-HA) | binding result (LexA-Gcn5mut-HA) | binding result [1] |
| --- | --- | --- | --- | --- | --- |
| VH-12A (VHH, not shown: large carriers, Single mouse VH domain split from ScFv-12A, as yeast two-hybrid prey; also called VH-12X) VHH: QVQLQQSGAELVKPGASVKLSCTASGFNIKDTYMHWVKQRPEQGLEWIGRIDPANGNTKYDPKFQGKATITADTSSNTAYLQLSSLTSEDTAVYYCASLLWWGQGTLVTVSA | binds | binds |  |  |  |
| ScFv-58F (scFv, not shown: large carriers, Yeast two-hybrid prey from mouse naive SPLINT ScFv library; also called ScFv-58 intrabody) scFv: DILMTQSPAIMSASPGEKVTMTCRASSSVSSSYLHWYQQKSGASPKLWIYSTSNLASGVPARFSGSGSGTSYSLTISSVEAEDAATYYCQQYSGYPWTSGGGTKLEIKRSGGSTSGSGKPGSGEGSSSTEVKVEESGGGLVQPGGSMKLSCVASGFTFSNYWMNWVRQSPEKGLEWVAEIRLKSNNYATHYAESVKGRFTISRDDSESSVYLQMNNLRAEDTGIYYCTRRNGPSSRAMDYWGQGTTVTVSS |  |  | no binding | no binding | no binding |
